Positions count from the first letter of the chain named. Names may count otherwise.
T1: high-affinity IL2R expressed on the surface of CTLL-2 cells
T1 sequence (P01590 whole entry, species assumed, looked up): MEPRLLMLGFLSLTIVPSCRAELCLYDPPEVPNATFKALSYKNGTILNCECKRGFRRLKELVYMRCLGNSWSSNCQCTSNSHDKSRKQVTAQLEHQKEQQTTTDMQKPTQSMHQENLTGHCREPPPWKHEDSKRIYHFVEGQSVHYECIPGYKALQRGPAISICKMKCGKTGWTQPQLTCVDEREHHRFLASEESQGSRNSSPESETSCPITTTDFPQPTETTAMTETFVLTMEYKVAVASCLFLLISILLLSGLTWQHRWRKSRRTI
T1 sequence (P16297 whole entry, species assumed, looked up): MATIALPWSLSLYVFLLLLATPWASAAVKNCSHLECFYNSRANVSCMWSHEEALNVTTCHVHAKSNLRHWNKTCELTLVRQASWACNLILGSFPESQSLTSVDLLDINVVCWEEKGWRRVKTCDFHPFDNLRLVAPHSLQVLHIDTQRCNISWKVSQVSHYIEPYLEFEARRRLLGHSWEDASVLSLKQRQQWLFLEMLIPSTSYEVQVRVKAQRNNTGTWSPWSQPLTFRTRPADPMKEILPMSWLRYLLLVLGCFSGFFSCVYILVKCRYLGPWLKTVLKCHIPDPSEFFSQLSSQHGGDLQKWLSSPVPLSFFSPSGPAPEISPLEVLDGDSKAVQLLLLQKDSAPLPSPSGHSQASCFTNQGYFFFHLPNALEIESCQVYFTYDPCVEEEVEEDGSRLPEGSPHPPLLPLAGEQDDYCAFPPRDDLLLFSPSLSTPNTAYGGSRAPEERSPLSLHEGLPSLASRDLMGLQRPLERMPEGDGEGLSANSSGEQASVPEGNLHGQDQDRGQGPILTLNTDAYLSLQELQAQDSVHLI
T1 sequence (P34902 whole entry, species assumed, looked up): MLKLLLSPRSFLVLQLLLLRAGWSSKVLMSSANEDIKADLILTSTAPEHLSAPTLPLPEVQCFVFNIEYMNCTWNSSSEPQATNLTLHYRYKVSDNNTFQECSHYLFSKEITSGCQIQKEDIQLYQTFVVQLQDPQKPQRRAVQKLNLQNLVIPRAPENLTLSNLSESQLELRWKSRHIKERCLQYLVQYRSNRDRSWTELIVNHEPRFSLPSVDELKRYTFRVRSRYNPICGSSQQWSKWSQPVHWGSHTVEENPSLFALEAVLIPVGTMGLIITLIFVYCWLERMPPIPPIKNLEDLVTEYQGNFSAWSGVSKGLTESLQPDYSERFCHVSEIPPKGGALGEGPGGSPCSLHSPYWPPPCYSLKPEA

T2: mIL2-his (mouse, UniProt P04351 21-169)
T2 construct: also called wild-type mouse IL-2 (with a his-tag); not shown: his-tag
T2 sequence (looked up): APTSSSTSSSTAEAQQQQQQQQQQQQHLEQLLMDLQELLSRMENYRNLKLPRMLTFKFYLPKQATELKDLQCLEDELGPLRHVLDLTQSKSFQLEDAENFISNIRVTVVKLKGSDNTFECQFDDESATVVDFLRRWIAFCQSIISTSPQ

T3: hIL2Rβ (hCD122) (human, UniProt P14784 27-239, limits assumed)
T3 construct: bought recombinant protein; also called hCD122 (Acro)
T3 sequence (looked up): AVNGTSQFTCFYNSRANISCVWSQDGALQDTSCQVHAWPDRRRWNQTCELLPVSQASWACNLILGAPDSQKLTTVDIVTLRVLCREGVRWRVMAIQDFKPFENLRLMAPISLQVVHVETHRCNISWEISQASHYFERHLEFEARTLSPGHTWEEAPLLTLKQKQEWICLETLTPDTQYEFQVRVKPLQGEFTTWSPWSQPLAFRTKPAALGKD

B1: K2G11-Cy04 (other)
heavy: SSSTKKTQLQLEHLLLDLQMILNGINNYKNPKLTRMLTFKFYMPKKATELKHLQCLEEELGPLEEVLNLAQSKNFHLRPRDLISNIRVIVLELKGSETTFCCEYADETATIVEFLNRWITFLQSIISTLTGGGGSGGGGSGGGGSGGGGSQVQLVQSGAEVKKPGATVKISCKVSGDTITAYYMHWVRQAPGQGLEWIGRIDPDDDSTKYAENFKGRVTITADTSTDTAYMELSSLRSEDTAVYYCTTITFLYSRELRWFAYWGQGTLVTVSS
VL: DIVLTQSPATLSLSPGERATLSCQASQYISNYLSWYQQKPGQAPRLLIYSACSLASGIPARFSGSRSGTDFTLTISSLEPEDFAVYYCLQHYSTPYTFGQGTKLEIK
B2: hS4B6-H6K3-hu06 (antibody, V domains shown)
VH: QVQLVQSGAEVKKPGATVKISCKVSGDTITAYYLHWVRQAPGQGLEWIGRIDPEDDSTKYAENFKSRVTITADTSTNTAYMELSSLRSEDTAVYYCTTVTFYYSRELRWFAYWGQGTLVTVSS
VL: B1 VL with Y28D, S30G, C52T, S56D, F71Y
notes: H6K3 with heavy chain N65S
B3: hS4B6-H6K3-hu07 (antibody, V domains shown)
VH: B2 VH with S66G
VL: B1 VL with Y28D, S30G, C52T, S56D, F71Y
notes: H6K3 with heavy chain N65G
B4: hS4B6-H6K3-hu08 (antibody, V domains shown)
VH: B2 VH with S66N, N77D
VL: B1 VL with Y28D, S30G, C52T, S56D, F71Y
notes: H6K3 with heavy chain N76D; also called H6K3-huis
B5: hS4B6-H6K3-hu09 (antibody, V domains shown)
VH: B2 VH with S66N
VL: B1 VL with Y28D, S30G, C52T, F71Y
notes: H6K3 with light chain D56S
B6: hS4B6-H6K3-hu10 (antibody, V domains shown)
VH: B2 VH with S66N
VL: B1 VL with Y28D, S30G, C52T, S56T, F71Y
notes: H6K3 with light chain D56T
B7: hS4B6-H6K3-hu11 (antibody, V domains shown)
VH: B2 VH with S66N
VL: B1 VL with Y28D, S30G, C52T, S56D, R66G, F71Y
notes: H6K3 with light chain R66G
B8: hS4B6-H6K3-hu12 (antibody, V domains shown)
VH: B2 VH with S66N
VL: B1 VL with Y28D, S30G, C52T, S56D
notes: H6K3 with light chain Y71F
B9: hS4B6-H1K1 (antibody, V domains shown)
VH: QVQLQESGPGLVKPSETLSLTCTVSGDTITAYYLHWIRQPPGKGLEWIGRIDPEDDSTKYAENFKNRVTISVDTSKNQFSLKLSSVTAADTAVYYCTTVTFYYSRELRWFAYWGQGTTVTVSS
VL: B1 VL with A9G, Y28D, S30G, C52T, S56D, A60D, F71Y, S77R, L104V
notes: full antibody
B10: hS4B6-H3K3 (antibody, V domains shown)
VH: QVTLKESGPVLVKPTQTLTLTCTVSGDTITAYYLHWIRQPPGKALEWIGRIDPEDDSTKYAENFKNRLTFSADTSKNQVVLTMTNMDPVDTATYYCARVTFYYSRELRWFAYWGQGTLVTVSS
VL: B1 VL with Y28D, S30G, C52T, S56D, F71Y
notes: full antibody
B11: hS4B6-H6K7 (antibody, V domains shown)
VH: B2 VH with S66N
VL: DIQMTQSPSSLSASVGDRVTITCQASQDIGNYLSWYQQKPGKAPKLLIHSATSLADGVPSRFSGSGSGTDFTLTISSLQPEDFATYYCLQHYSTPYTFGGGTKVEIK
notes: full antibody
B12: IC-Cy08-DE (other)
heavy: APTSSSTKKTQLQLEHLLLDLQMILNGINNYKNPKLTRMLTFKFYMPKKATELKHLQCLEEELGCLEEVLNLAQSKNFHLRPRDLISNIRVIVLELKGSETTFMCEYADETATIVEFLNRWITFCQSIISTLTGGGGSGGGGSGGGGSGGGGSQVQLVQSGAEVKKPGATVKISCKVSGDTITAYYMHWVRQAPGQGLEWIGRIDPEDDSTKYAENFKGRVTITADTSTDTAYMELSSLRSEDTAVYYCTTVTCYYSRELRWFAYWGQGTLVTVSS
VL: B1 VL with D1E, Y28D, S30G, C52T
notes: IC-Cy08 with light chain D1E; also called H6K3(H)-Cy-08-DE
B13: IC-Cy08-QD (other)
heavy: B12 heavy
VL: B1 VL with Q27D, Y28D, S30G, C52T
notes: IC-Cy08 with light chain Q27D; also called H6K3(H)-Cy-08-QD
B14: IC-Cy08-QE (other)
heavy: B12 heavy
VL: B1 VL with Q27E, Y28D, S30G, C52T
notes: IC-Cy08 with light chain Q27E; also called H6K3(H)-Cy-08-QE
B15: IC-Cy08-QG (other)
heavy: B12 heavy
VL: B1 VL with Q27G, Y28D, S30G, C52T
notes: IC-Cy08 with light chain Q27G; also called H6K3(H)-Cy-08-QG
B16: IC-Cy08-QK (other)
heavy: B12 heavy
VL: B1 VL with Q27K, Y28D, S30G, C52T
notes: IC-Cy08 with light chain Q27K; also called H6K3(H)-Cy-08-QK; C-Cy8-QK
B17: IC-Cy08-QR (other)
heavy: B12 heavy
VL: B1 VL with Q27R, Y28D, S30G, C52T
notes: IC-Cy08 with light chain Q27R; also called H6K3(H)-Cy-08-QR
B18: IC-Cy08-QS (other)
heavy: B12 heavy
VL: B1 VL with Q27S, Y28D, S30G, C52T
notes: IC-Cy08 with light chain Q27S; also called H6K3(H)-Cy-08-QS

Target: T1, high-affinity IL2R expressed on the …
Assay: cell-based or functional assay

**Q.** B1 was tested. Which “Activity in Promoting CTLL-2 Cell Proliferation (EC50, nM)” value did it give?
**A.** 9.17 nM

Target: T4, hIL2-DM-his (human, UniProt P60568 21-153)
T4 construct: expressed in ExpiCHO-S cells, nickel-column purified; also called hIL-2 mutein containing two point mutations K64G and N90R (with a his-tag); not shown: his-tag
Assay: BLI ForteBio, Ab on Protein A sensor

**Q.** How did the “Binding Response (nm)” value turn out when B2 was run?
**A.** 0.135 nm

**Q.** What about the Kd of the same binder?
**A.** 52.5 nM

**Q.** And the koff?
**A.** 0.0192 s⁻¹

**Q.** And the kon?
**A.** 365000 M⁻¹ s⁻¹

**Q.** What does the source list for B3?
**A.** Binding Response (nm): 0.13 nm; Kd: 45.3 nM; koff: 0.0181 s⁻¹; kon: 400000 M⁻¹ s⁻¹

**Q.** For B4, which “Binding Response (nm)” value is on record?
**A.** 0.127 nm

**Q.** What about the Kd of the same binder?
**A.** 58.1 nM

**Q.** What about the koff of the same binder?
**A.** 0.0207 s⁻¹

**Q.** What about the kon of the same binder?
**A.** 356000 M⁻¹ s⁻¹

**Q.** For B5, which “Binding Response (nm)” value is on record?
**A.** 0.18 nm

**Q.** What about the Kd of the same binder?
**A.** 23.6 nM

**Q.** What about the koff of the same binder?
**A.** 0.00867 s⁻¹

**Q.** And the kon?
**A.** 367000 M⁻¹ s⁻¹

**Q.** How did the “Binding Response (nm)” value turn out when B6 was run?
**A.** 0.172 nm

**Q.** What about the Kd of the same binder?
**A.** 28.3 nM

**Q.** And the koff?
**A.** 0.0106 s⁻¹

**Q.** What about the kon of the same binder?
**A.** 372000 M⁻¹ s⁻¹

**Q.** Does B7 bind?
**A.** no binding (tested: 100 nM (highest antigen concentration))

**Q.** What does the source list for B8?
**A.** Binding Response (nm): 0.152 nm; Kd: 32.3 nM; koff: 0.0174 s⁻¹; kon: 537000 M⁻¹ s⁻¹

Target: T2, mIL2-his
Assay: BLI ForteBio, Ab on Protein A sensor
Method: After each cycle of association and dissociation steps, the sensor was regenerated by 10 mM glycine buffer (pH 1.5) and then stated with the next cycle of detection. After the detection, the association rate constant and dissociation rate constant between the antibody and antigen were fitted and extrapolated using the analytical software, and the value of affinity constant (KD) was calculated.

**Q.** For B9, which Kd is on record?
**A.** 25.9 nM

**Q.** And the koff?
**A.** 0.000719 s⁻¹

**Q.** And the kon?
**A.** 27700 M⁻¹ s⁻¹

**Q.** For B10, which Kd is on record?
**A.** 13.2 nM

**Q.** What about the koff of the same binder?
**A.** 0.00265 s⁻¹

**Q.** And the kon?
**A.** 200000 M⁻¹ s⁻¹

**Q.** B11 was tested. Which Kd did it give?
**A.** 1.4 nM

**Q.** And the koff?
**A.** 0.00121 s⁻¹

**Q.** And the kon?
**A.** 864000 M⁻¹ s⁻¹

Target: T3, hIL2Rβ (hCD122)
Assay: ELISA (method of section 2.1.1): sample captured on coated goat anti-human IgG, hCD122 titrated; the x axis is the CD122 concentration
Method: (§1) ELISA was performed as follows: a goat anti-human IgG (Jackson Immunoresearch) was diluted to 1 μg/mL in 1×PBS and added to an ELISA plate at 100 μL/well, and then incubated at 4° C. overnight. The plate was washed with PBS and then blocked at room temperature for 1 hour after adding the blocking solution (PBST containing 1% BSA) to each well. […] The plate was washed with PBST; the HRP-labeled anti-6×His-tag secondary antibody (Proteintech) diluted at a ratio of 1:10,000 in blocking solution was then added to each well and incubated at room temperature for 1 hour. The plate was washed with PBST; the TMB chromogenic solution (Thermo) was added to each well and incubated in dark for 3-10 minutes at room temperature. The stop solution (2 M HCl) was added to each well, and OD values at a wavelength of 450-570 nm were read using a multimode microplate reader (Varioskan, Thermo).

**Q.** Does B12 bind?
**A.** binds

**Q.** Does B13 bind?
**A.** binds

**Q.** Does B14 bind?
**A.** binds

**Q.** Does B15 bind?
**A.** binds

**Q.** Does B16 bind?
**A.** binds

**Q.** Does B17 bind?
**A.** binds

**Q.** Does B18 bind?
**A.** binds

Target: T2, mIL2-his
Assay: ELISA, antibody captured by anti-human IgG, mIL2-his titrated
Method: as §1

**Q.** For B9, which EC50 is on record?
**A.** 0.0357 µg/mL

**Q.** For B10, which EC50 is on record?
**A.** 0.185 µg/mL

**Q.** How did the EC50 turn out when B11 was run?
**A.** 0.0357 µg/mL
